# From article PMC9769556
# B1: RecA of Deinococcus radiodurans (DrRecA), purified (natural protein)
# chain: MSKDATKEISAPTDAKERSKAIETAMSQIEKAFGKGSIMKLGAESKLDVQVVSTGSLSLDLALGVGGIPRGRITEIYGPESGGKTTLALAIVAQAQKAGGTCAFIDAEHALDPVYARALGVNTDELLVSQPDNGEQALEIMELLVRSGAIDVVVVDSVAALTPRAEIEGDMGDSLPGLQARLMSQALRKLTAILSKTGTAAIFINQVREKIGVMYGNPETTTGGRALKFYASVRLDVRKIGQPTKVGNDAVANTVKIKTVKNKVAAPFKEVELALVYGKGFDQLSDLVGLAADMDIIKKAGSFYSYGDERIGQGKEKTIAYIAERPEMEQEIRDRVMAAIRAGNAGEAPALAPAPAAPEAAEA
# Experiments:
# [1] = system: DrDprA (Deinococcus radiodurans R1 (ATCC 13939)); assay: EMSA; details: EMSA: 10 mM Tris-HCl pH 7.5, 50 mM NaCl, 1 mM DTT, 10 min at 37 C, 2 nM 32P probe
# [2] = molecular target: DNA processing protein A of Deinococcus radiodurans (DrDprA), purified recombinant wild type (D. radiodurans); assay: SPR; 2.5 uM DrDprA immobilised on a bare gold sensor chip by EDC-NHS chemistry at 20 C (Autolab Esprit); DrRecA 0.5 to 3 uM in the mobile phase, 20 mM Tris pH 7.6, 1 mM MgCl2
Molecule,Kd [1] [µM],Kd [2] [µM]
167-bp dsDNA,3.53,
167-mer ssDNA,3.04,
B1,,0.293
